What was measured:
MDA-MB-231 = test: Growth of MDA-MB-231 cells in three-dimensional (3D) organotypic model; type: cell-based, human; conditions: for growth and tumour mass development in extracellular matrix: MDA-MB-231, 50-100 μg/mL, day 6, versus control irrelevant IgG
Experimental: A highly aggressive triple-negative human breast cancer cell line MDA-MB-231 (ATCC® HTB-26™) was cultured according to recommended conditions in Dulbecco's Modified Eagle's Medium/Nutrient Mixture F-12 Ham medium supplemented with 10% foetal bovine serum (FBS), glutamine and penicillin and streptomycin. The cells were pre-treated in suspension for at least 1 hour at 37° C., to ensure proper binding of antibodies on the cell surface before they were placed in extracellular matrix. The cells cultures were observed every day and fresh treatments were done every other day. The antibodies were used at concentrations 50-100 μg/mL. Imaging of coverslip 3D assay (35 mm dish) was done on a NIKON light microscopy using both Phase contrast and Hoffman optics. Already at day 3, difference in growth of cells treated with either MAb 10C9 or MAb10G5 and cells treated with a control irrelevant IgG was observed.

Mer (rhMer-Fc chimera) = target: T1, Mer (rhMer-Fc chimera) (Homo sapiens, UniProt Q12866); test: Biacore binding analysis on immobilized human Mer; conditions: 10 μg/mL, 25° C.
T1 construct: Soluble recombinant antigens corresponding to the extracellular domains of members of the human TAM receptor family; purchased R&D Systems 891-MR
T1 sequence (Q12866 21-505 limits assumed): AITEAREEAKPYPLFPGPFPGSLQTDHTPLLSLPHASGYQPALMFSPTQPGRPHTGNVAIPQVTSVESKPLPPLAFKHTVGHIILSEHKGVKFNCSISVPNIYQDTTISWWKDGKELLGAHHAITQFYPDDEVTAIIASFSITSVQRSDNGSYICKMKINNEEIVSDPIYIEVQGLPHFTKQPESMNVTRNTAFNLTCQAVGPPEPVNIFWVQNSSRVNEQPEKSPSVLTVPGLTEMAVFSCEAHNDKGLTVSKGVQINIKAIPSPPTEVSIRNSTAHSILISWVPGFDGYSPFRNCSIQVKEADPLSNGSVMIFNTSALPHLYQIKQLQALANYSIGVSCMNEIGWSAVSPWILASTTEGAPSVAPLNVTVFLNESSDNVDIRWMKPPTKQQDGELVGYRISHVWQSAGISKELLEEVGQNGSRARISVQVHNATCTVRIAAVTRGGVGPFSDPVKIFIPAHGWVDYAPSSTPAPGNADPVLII
Experimental: (§1) All binding experiments were performed using Biacore 3000 instrument (GE Healthcare) at 25° C. Soluble recombinant antigens corresponding to the extracellular domains of members of the human TAM receptor family, Axl (rhAxl-Fc chimera; R&D Systems, Cat. no. 154-AL), Mer (rhMer-Fc chimera; R&D Systems, Cat. no. 891-MR) and Tyro3 (rhTyro3/Dtk-Fc chimera; R&D Systems, Cat. no. 859-DK) were immobilized on the surface of CM5 sensor chip using amine coupling at the surface density of 393.0, 303.6 and 364.0 resonance units (RU), respectively. The Biacore run was performed in an automatic mode using Binding analysis wizard. Samples containing either MAb 10C9 or MAb 10G5 at concentration 10 μg/mL in HBS-EP buffer (GE Healthcare) were injected over the surfaces with immobilized antigens at flow rate of 30 μL/min for 3 min (association) followed by 5 min dissociation.

[1] = target: T2, human Tyro3 (rhTyro3/Dtk-Fc chimera) (Homo sapiens, UniProt Q06418); test: Biacore binding analysis on immobilized human Tyro3; conditions: 10 μg/mL, 25° C.
T2 construct: Soluble recombinant antigens corresponding to the extracellular domains of members of the human TAM receptor family; purchased R&D Systems 859-DK
T2 sequence (Q06418 41-429 limits assumed): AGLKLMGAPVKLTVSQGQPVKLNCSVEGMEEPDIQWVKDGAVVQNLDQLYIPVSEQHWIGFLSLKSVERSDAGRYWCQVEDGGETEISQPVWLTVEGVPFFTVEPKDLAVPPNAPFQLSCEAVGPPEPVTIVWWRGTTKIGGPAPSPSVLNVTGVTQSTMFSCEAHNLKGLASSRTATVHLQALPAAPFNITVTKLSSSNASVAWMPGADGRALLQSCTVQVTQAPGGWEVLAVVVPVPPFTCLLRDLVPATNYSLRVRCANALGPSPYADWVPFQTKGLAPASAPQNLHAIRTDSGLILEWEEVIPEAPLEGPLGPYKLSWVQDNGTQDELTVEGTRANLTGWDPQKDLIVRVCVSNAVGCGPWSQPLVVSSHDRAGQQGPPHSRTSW
Experimental: as §1
The binding experiments were performed using Biacore 3000 instrument (GE Healthcare) at 25° C. The soluble recombinant antigens corresponding to human Axl (rhAxl-Fc chimera; R&D Systems, Cat. no. 154-AL), mouse Axl (rmAxl-Fc chimera; R&D Systems, R&D Systems; Cat. no. 854-AX) and human Tyro3 (rhTyro3/Dtk-Fc chimera; R&D Systems, Cat. no. 859-DK) were immobilized on the surface of CM5 sensor chip using amine coupling at the surface density of 1,308.0, 2,115.9 and 1,429.0 RU, respectively. The Biacore runs were performed in an automatic mode using Binding analysis wizard.
The sample containing either MAb 10C9, MAb 10G5 or recombinant mouse (rm) Axl-ligand Gas6 (R&D Systems, Cat. no. 986-GS/CF) at concentration 10 μg/mL in HBS-EP buffer (GE Healthcare) was injected over the surfaces with immobilized antigens at flow rate of 30 μL/min for 3 min (association) followed by 5 min dissociation.

[2] = test system: Axl-positive breast cancer cell line MDA-MB-231; test: Flow cytometry binding to Axl-positive MDA-MB-231 cells; type: cell-based, human; conditions: different antibody concentrations, MFI
Experimental: Different concentrations of mouse and chimeric antibodies were tested in flow cytometry for binding to triple-negative breast cancer cell line MDA-MB-231. The bound mouse and chimeric antibodies were detected with APC-conjugated donkey F(ab′)2 fragments specific for either mouse IgG (H+L), 1:500 dilution, or human IgG (H+L), 1:300 dilution, respectively (both from Jackson ImmunoResearch). The cell staining was measured using Accuri C6 flow cytometer (BD Biosciences). MFI, geometric mean fluorescence intensity.
The purified chimeric antibodies (>95% purity) were analysed for binding to Axl-positive breast cancer cell line MDA-MB-231 in flow cytometry. For comparison, the parental mouse MAbs 10C9 and 10G5 were used. For flow cytometry, the adherent cells in culture were washed with PBS, detached by treatment with trypsin (0.25%) for 1 min and hitting culture dish for full detachment. Trypsin was quenched by adding into the tissue flask the complete medium followed by washing the cells with PBS. During the washing steps, the cells were collected by centrifugation at 200 g for 5 min. The antibody was diluted for total concentration in PBS containing 0.02% bovine serum albumin (BSA). Cell staining was performed using 200 μL of cell suspension comprising 10^5 cells for 20 min at room temperature. The cell-bound antibodies were detected with APC-conjugated donkey anti-human or anti-mouse, respectively, IgG (H+L) F(ab′)2 fragments (Jackson ImmunoResearch). After two washing steps with PBS/0.02% BSA, the cells were resuspended in 200 μL and kept on ice before analysis on Accuri C6 flow cytometer (BD Biosciences).

binding to human Mer (Mer (rhMer-Fc chimera)) | binding to human Tyro3 [1] | binding to human Mer (Mer (rhMer-Fc chimera); listed as 1009) | binding to human Tyro3 ([1]; listed as 1009) | Molecule | viability of treated cells (nuclei staining) (MDA-MB-231; MDA-MB-231 3D culture) | growth and tumour mass development in extracellular matrix (MDA-MB-231) | binding to MDA-MB-231 cells in flow cytometry [2]
no significant binding | no significant binding |  |  | 10G5: mouse anti-Axl monoclonal antibody from hybridoma WR-10G5-E5, IgG1; VH SEQ ID NO: 21, VL SEQ ID NO: 22 (antibody, listed as Mus musculus, V domains shown) VH: QVQLQQSGAELVRPGASVKLSCKASGYSFTDFYINWVRQRPGQGLEWIARIFPGGDNTYYNEKFKGKATLTAEESSSTAYIQLSSLTSEDSAVYFCARRGLYYAMDYWGQGISVTVSS VL: DVLMTQTPLSLPVSLGDQASISCRSSQSLVHSNGIPYLHWYLQKPGQSPKLLIYRVSNRFSGVPDRFSGSGSGTDFTLKISRVEAEDLGVYFCSQGTHVPPTFGGGTKLEIK | still viable | significantly inhibited growth and tumour mass development | 
 |  |  |  | c10G5: chimeric (mouse variable/human constant) IgG1 variant of antibody 10G5 (antibody, left off: a dimerising Fc or GST, chimeric (mouse variable/human constant) IgG1 variant of antibody 10G5) heavy: QVQLQQSGAELVRPGASVKLSCKASGYSFTDFYINWVRQRPGQGLEWIARIFPGGDNTYYNEKFKGKATLTAEESSSTAYIQLSSLTSEDSAVYFCARRGLYYAMDYWGQGISVTVSS light: DVLMTQTPLSLPVSLGDQASISCRSSQSLVHSNGIPYLHWYLQKPGQSPKLLIYRVSNRFSGVPDRFSGSGSGTDFTLKISRVEAEDLGVYFCSQGTHVPPTFGGGTKLEIK |  |  | Dose-dependent binding
no binding | no binding | no significant binding | no significant binding | 10C9: mouse anti-Axl monoclonal antibody from hybridoma UT-10C9-B9, IgG2b; VH SEQ ID NO: 3, VL SEQ ID NO: 4 (antibody, listed as Mus musculus, V domains shown) VH: QVQLQQPGPELVKPGASVKISCKTSDYNFTRYYIHWVKQRPGQGLEWIGWIYPGTGDSKYNEKFKGRATLTADTSSSTAYMQLSSQTSEDSAVYFCARNGNYWYFDVWGAGTAVTVSS VL: DIVMTQAAPSGPVTPGESVSISCRSSKSLLHSNGNTYLYWFLQRPGQSPQLLIYRMSNLASGVPDRFSGSGSGTAFTLRISRVEAEDVGIYYCMQHREYPFTFGGGTKLEIK |  | significantly inhibited growth and tumour mass development | Dose-dependent binding
